Assay results: patent publication US10450368

Assays:
[1] = biological target: CH505 TF loop D mutant M20 Env (pseudovirus) (HIV-1); test: cell-based or functional assay
[2] = biological target: CH505 TF loop D mutant M7 Env (pseudovirus) (HIV-1); test: cell-based or functional assay
[3] = biological target: CH505 TF loop D mutant M8 Env (pseudovirus) (HIV-1); test: cell-based or functional assay
[4] = biological target: CH505 TF loop D mutant M9 Env (pseudovirus) (HIV-1); test: cell-based or functional assay
CH505.M10D8gp120 = test: direct-binding ELISA
CH505.M11D8gp120/293F = test: direct-binding ELISA
CH505.M19D8gp120 = test: direct-binding ELISA
CH505.M21D8gp120/293F = test: direct-binding ELISA
CH505.M5D8gp120293F = test: direct-binding ELISA
CH505.M7D8gp120/293F = test: direct-binding ELISA
CH505.M9D8gp120/293F = test: direct-binding ELISA
[5] = biological target: CH505.TF mutant gp120 M20 (HIV-1); test: direct-binding ELISA
[6] = biological target: CH505.TF mutant gp120 M6 (HIV-1); test: direct-binding ELISA
[7] = biological target: CH505.TF mutant gp120 M8 (HIV-1); test: direct-binding ELISA
[8] = biological target: CH505_w137V201B12.D11gp120 (HIV-1); test: direct-binding ELISA
[9] = biological target: CH505_w137V209C12.D11gp120 (HIV-1); test: direct-binding ELISA
[10] = biological target: CH505w136.B10D8gp120 (HIV-1); test: direct-binding ELISA
[11] = biological target: CH505w136.B12D8gp120 (HIV-1); test: direct-binding ELISA
[12] = biological target: CH505w136.B18D8gp120 (HIV-1); test: direct-binding ELISA
[13] = biological target: CH505w136.B20D8gp120 (HIV-1); test: direct-binding ELISA
[14] = biological target: CH505w136.B27D8gp120 (HIV-1); test: direct-binding ELISA
[15] = biological target: CH505w136.B29D8gp120 (HIV-1); test: direct-binding ELISA
[16] = biological target: CH505w136.B2D8gp120/293F (HIV-1); test: direct-binding ELISA
[17] = biological target: CH505w136.B36D8gp120 (HIV-1); test: direct-binding ELISA
[18] = biological target: CH505w136.B3D8gp120/293F (HIV-1); test: direct-binding ELISA
[19] = biological target: CH505w136.B4D8gp120 (HIV-1); test: direct-binding ELISA
[20] = biological target: CH505w136.B5D8gp120 (HIV-1); test: direct-binding ELISA
[21] = biological target: CH505w136.B8D8gp120 (HIV-1); test: direct-binding ELISA
[22] = biological target: CH505w160.A1D8gp120 (HIV-1); test: direct-binding ELISA
[23] = biological target: CH505w160.C11D8gp120 (HIV-1); test: direct-binding ELISA
[24] = biological target: CH505w160.C12D8gp120 (HIV-1); test: direct-binding ELISA
[25] = biological target: CH505w160.C14D8gp120 (HIV-1); test: direct-binding ELISA
[26] = biological target: CH505w160.C2D8gp120 (HIV-1); test: direct-binding ELISA
[27] = biological target: CH505w160.C4D8gp120 (HIV-1); test: direct-binding ELISA
[28] = biological target: CH505w160.D1D8gp120 (HIV-1); test: direct-binding ELISA
[29] = biological target: CH505w160.D5D8gp120/293F (HIV-1); test: direct-binding ELISA
[30] = biological target: CH505w160.T2D8gp120 (HIV-1); test: direct-binding ELISA
[31] = biological target: CH505w160.T4D8gp120/293F (HIV-1); test: direct-binding ELISA
Centromere B [32] = biological target: Centromere B (UniProt P07199); test: AtheNA, Ab 25 ug/ml
Histones [33] = test: AtheNA, Ab 25 ug/ml
Jo-1 [34] = biological target: Jo-1 (UniProt P12081); test: AtheNA, Ab 25 ug/ml
RNP (ribonucleoprotein) [35] = test: AtheNA, Ab 25 ug/ml
SSA [36] = test: AtheNA, Ab 25 ug/ml
SSB [37] = biological target: SSB (UniProt P05455); test: AtheNA, Ab 25 ug/ml
Scl-70 [38] = biological target: Scl-70 (UniProt P11387); test: AtheNA, Ab 25 ug/ml
Sm (Smith antigen) [39] = test: AtheNA, Ab 25 ug/ml
Centromere B [40] = biological target: Centromere B (UniProt P07199); test: AtheNA, Ab 25 ug/ml; remark: listed apart in the source
Histones [41] = test: AtheNA, Ab 25 ug/ml; remark: listed apart in the source
Jo-1 [42] = biological target: Jo-1 (UniProt P12081); test: AtheNA, Ab 25 ug/ml; remark: listed apart in the source
RNP (ribonucleoprotein) [43] = test: AtheNA, Ab 25 ug/ml; remark: listed apart in the source
SSA [44] = test: AtheNA, Ab 25 ug/ml; remark: listed apart in the source
SSB [45] = biological target: SSB (UniProt P05455); test: AtheNA, Ab 25 ug/ml; remark: listed apart in the source
Sm (Smith antigen) [46] = test: AtheNA, Ab 25 ug/ml; remark: listed apart in the source
Centromere B [47] = biological target: Centromere B (UniProt P07199); test: AtheNA, Ab 12.5 ug/ml
Histones [48] = test: AtheNA, Ab 12.5 ug/ml
Jo-1 [49] = biological target: Jo-1 (UniProt P12081); test: AtheNA, Ab 12.5 ug/ml
RNP (ribonucleoprotein) [50] = test: AtheNA, Ab 12.5 ug/ml
SSA [51] = test: AtheNA, Ab 12.5 ug/ml
SSB [52] = biological target: SSB (UniProt P05455); test: AtheNA, Ab 12.5 ug/ml
Scl-70 [53] = biological target: Scl-70 (UniProt P11387); test: AtheNA, Ab 12.5 ug/ml
Sm (Smith antigen) [54] = test: AtheNA, Ab 12.5 ug/ml
Centromere B [55] = biological target: Centromere B (UniProt P07199); test: AtheNA, Ab 6.25 ug/ml
Histones [56] = test: AtheNA, Ab 6.25 ug/ml
Jo-1 [57] = biological target: Jo-1 (UniProt P12081); test: AtheNA, Ab 6.25 ug/ml
RNP (ribonucleoprotein) [58] = test: AtheNA, Ab 6.25 ug/ml
SSA [59] = test: AtheNA, Ab 6.25 ug/ml
SSB [60] = biological target: SSB (UniProt P05455); test: AtheNA, Ab 6.25 ug/ml
Scl-70 [61] = biological target: Scl-70 (UniProt P11387); test: AtheNA, Ab 6.25 ug/ml
Sm (Smith antigen) [62] = test: AtheNA, Ab 6.25 ug/ml

Chain of Scl-70 (P11387 whole entry): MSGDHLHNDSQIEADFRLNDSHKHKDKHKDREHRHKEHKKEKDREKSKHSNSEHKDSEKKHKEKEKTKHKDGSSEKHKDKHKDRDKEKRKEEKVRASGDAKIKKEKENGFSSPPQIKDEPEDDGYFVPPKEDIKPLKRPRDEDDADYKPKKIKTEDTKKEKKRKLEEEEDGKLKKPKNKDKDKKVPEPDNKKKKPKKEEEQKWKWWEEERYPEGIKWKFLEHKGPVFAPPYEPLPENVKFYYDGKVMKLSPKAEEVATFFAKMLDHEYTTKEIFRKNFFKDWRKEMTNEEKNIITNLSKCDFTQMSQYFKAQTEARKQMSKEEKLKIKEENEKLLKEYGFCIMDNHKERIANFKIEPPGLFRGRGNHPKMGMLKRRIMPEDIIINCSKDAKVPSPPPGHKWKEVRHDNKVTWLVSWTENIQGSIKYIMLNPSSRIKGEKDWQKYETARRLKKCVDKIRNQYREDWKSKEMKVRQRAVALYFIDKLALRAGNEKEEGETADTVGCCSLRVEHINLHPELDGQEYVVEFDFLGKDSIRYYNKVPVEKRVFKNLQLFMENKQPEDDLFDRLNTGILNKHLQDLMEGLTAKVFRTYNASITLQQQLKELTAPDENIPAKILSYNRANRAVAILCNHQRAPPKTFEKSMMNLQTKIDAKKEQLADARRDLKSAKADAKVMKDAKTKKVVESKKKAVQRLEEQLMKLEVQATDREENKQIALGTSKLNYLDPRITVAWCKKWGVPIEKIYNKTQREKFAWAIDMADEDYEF
Chain of Jo-1 (P12081 whole entry): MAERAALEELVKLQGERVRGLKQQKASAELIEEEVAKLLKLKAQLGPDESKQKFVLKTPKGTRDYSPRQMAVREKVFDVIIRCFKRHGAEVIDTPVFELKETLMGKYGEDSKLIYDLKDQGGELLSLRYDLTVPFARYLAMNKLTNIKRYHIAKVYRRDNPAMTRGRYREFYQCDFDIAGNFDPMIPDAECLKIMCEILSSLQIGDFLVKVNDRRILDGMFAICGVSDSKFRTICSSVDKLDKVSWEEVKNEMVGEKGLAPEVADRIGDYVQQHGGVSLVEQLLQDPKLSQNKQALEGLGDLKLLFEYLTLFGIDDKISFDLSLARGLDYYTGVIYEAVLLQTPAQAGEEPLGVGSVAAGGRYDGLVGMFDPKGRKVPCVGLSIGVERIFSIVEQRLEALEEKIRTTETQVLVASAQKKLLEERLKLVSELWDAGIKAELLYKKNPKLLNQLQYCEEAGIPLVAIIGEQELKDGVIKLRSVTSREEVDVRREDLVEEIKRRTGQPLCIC
Chain of Centromere B (P07199 whole entry): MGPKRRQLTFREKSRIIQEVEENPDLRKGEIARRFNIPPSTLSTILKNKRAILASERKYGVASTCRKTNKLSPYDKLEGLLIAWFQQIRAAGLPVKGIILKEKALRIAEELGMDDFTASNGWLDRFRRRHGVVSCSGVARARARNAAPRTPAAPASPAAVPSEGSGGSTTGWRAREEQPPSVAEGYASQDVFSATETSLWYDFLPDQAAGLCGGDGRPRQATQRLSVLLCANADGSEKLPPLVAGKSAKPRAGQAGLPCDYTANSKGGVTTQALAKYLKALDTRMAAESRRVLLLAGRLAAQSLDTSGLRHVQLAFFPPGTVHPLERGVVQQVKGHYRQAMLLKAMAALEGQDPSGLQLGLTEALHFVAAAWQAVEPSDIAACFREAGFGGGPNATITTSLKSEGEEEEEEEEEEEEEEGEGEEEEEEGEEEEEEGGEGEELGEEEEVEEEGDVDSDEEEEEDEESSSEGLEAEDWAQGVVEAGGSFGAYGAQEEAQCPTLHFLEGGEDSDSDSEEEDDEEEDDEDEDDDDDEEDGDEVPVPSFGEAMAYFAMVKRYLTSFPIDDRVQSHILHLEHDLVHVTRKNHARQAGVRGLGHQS
Chain of SSB (P05455 whole entry): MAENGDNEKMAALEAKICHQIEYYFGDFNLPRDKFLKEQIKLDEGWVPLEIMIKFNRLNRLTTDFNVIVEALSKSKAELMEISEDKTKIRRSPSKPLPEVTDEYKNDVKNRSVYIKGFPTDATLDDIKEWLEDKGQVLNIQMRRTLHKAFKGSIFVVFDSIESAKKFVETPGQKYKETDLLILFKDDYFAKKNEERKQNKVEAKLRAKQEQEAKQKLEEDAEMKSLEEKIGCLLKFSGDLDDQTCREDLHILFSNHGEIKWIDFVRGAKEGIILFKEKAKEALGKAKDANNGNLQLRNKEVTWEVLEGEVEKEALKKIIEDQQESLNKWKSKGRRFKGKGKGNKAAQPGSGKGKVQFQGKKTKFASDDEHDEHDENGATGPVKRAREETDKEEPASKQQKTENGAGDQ

Question: CH235.9 N30T (antibody) was tested. Which neutralization IC50, TZM-bl pseudovirus assay [1] did it give?
Answer: > 44 µg/mL

Question: And the neutralization IC50, TZM-bl pseudovirus assay [2]?
Answer: > 44 µg/mL

Question: What about the fold increase of neutralization IC50 against CH235.9 [3] of the same substance?
Answer: 37 fold

Question: And the neutralization IC50, TZM-bl pseudovirus assay [3]?
Answer: 24.3 µg/mL

Question: And the neutralization IC50, TZM-bl pseudovirus assay [4]?
Answer: > 44 µg/mL

Question: How did the LogAUC (CH505.M10D8gp120) turn out when CH248 (antibody) was run?
Answer: 13.8

Question: What about the LogAUC (CH505.M11D8gp120/293F) of the same substance?
Answer: 13.6

Question: And the LogAUC (CH505.M19D8gp120)?
Answer: 13.2

Question: And the LogAUC (CH505.M21D8gp120/293F)?
Answer: 13.8

Question: What about the LogAUC (CH505.M5D8gp120293F) of the same substance?
Answer: 11

Question: And the LogAUC (CH505.M7D8gp120/293F)?
Answer: 12.4

Question: And the LogAUC (CH505.M9D8gp120/293F)?
Answer: 13

Question: What about the LogAUC [5] of the same substance?
Answer: 13.2

Question: What about the LogAUC [6] of the same substance?
Answer: 13.6

Question: And the LogAUC [7]?
Answer: 12.3

Question: What about the LogAUC [8] of the same substance?
Answer: 13.4

Question: What about the LogAUC [9] of the same substance?
Answer: 14.7

Question: And the LogAUC [10]?
Answer: 11.5

Question: And the LogAUC [11]?
Answer: 12.9

Question: What about the LogAUC [12] of the same substance?
Answer: 14.3

Question: And the LogAUC [13]?
Answer: 12.9

Question: And the LogAUC [14]?
Answer: 12.9

Question: And the LogAUC [15]?
Answer: 12.3

Question: What about the LogAUC [16] of the same substance?
Answer: 13.4

Question: And the LogAUC [17]?
Answer: 14.4

Question: And the LogAUC [18]?
Answer: 14

Question: What about the LogAUC [19] of the same substance?
Answer: 13.4

Question: And the LogAUC [20]?
Answer: 14.6

Question: And the LogAUC [21]?
Answer: 12.3

Question: What about the LogAUC [22] of the same substance?
Answer: 8.62

Question: And the LogAUC [23]?
Answer: 10.7

Question: And the LogAUC [24]?
Answer: 12.9

Question: And the LogAUC [25]?
Answer: 10.3

Question: What about the LogAUC [26] of the same substance?
Answer: 11.1

Question: And the LogAUC [27]?
Answer: 10.5

Question: What about the LogAUC [28] of the same substance?
Answer: 8.75

Question: And the LogAUC [29]?
Answer: 7.84

Question: And the LogAUC [30]?
Answer: 8.34

Question: What about the LogAUC [31] of the same substance?
Answer: 13.5

Question: With synagis (antibody) as the substance, how does the AtheNA signal (relative luminescence units) (Centromere B [32]) read?
Answer: 4

Question: What about the AtheNA signal (relative luminescence units) (Histones [33]) of the same substance?
Answer: 5

Question: What about the AtheNA signal (relative luminescence units) (Jo-1 [34]) of the same substance?
Answer: 2

Question: And the AtheNA signal (relative luminescence units) (RNP (ribonucleoprotein) [35])?
Answer: 4

Question: And the AtheNA signal (relative luminescence units) (SSA [36])?
Answer: 3

Question: And the AtheNA signal (relative luminescence units) (SSB [37])?
Answer: 7

Question: And the AtheNA signal (relative luminescence units) (Scl-70 [38])?
Answer: 2

Question: What about the AtheNA signal (relative luminescence units) (Sm (Smith antigen) [39]) of the same substance?
Answer: 3

Question: And the AtheNA signal (relative luminescence units) (Centromere B [40])?
Answer: 2

Question: What about the AtheNA signal (relative luminescence units) (Histones [41]) of the same substance?
Answer: 2

Question: What about the AtheNA signal (relative luminescence units) (Jo-1 [42]) of the same substance?
Answer: 4

Question: And the AtheNA signal (relative luminescence units) (RNP (ribonucleoprotein) [43])?
Answer: 0

Question: And the AtheNA signal (relative luminescence units) (SSA [44])?
Answer: 11

Question: What about the AtheNA signal (relative luminescence units) (SSB [45]) of the same substance?
Answer: 4

Question: What about the AtheNA signal (relative luminescence units) (Sm (Smith antigen) [46]) of the same substance?
Answer: 4

Question: What about the AtheNA signal (relative luminescence units) (Centromere B [47]) of the same substance?
Answer: 2

Question: And the AtheNA signal (relative luminescence units) (Histones [48])?
Answer: 3

Question: And the AtheNA signal (relative luminescence units) (Jo-1 [49])?
Answer: 6

Question: What about the AtheNA signal (relative luminescence units) (RNP (ribonucleoprotein) [50]) of the same substance?
Answer: 3

Question: And the AtheNA signal (relative luminescence units) (SSA [51])?
Answer: 2

Question: What about the AtheNA signal (relative luminescence units) (SSB [52]) of the same substance?
Answer: 5

Question: What about the AtheNA signal (relative luminescence units) (Scl-70 [53]) of the same substance?
Answer: 3

Question: And the AtheNA signal (relative luminescence units) (Sm (Smith antigen) [54])?
Answer: 7

Question: And the AtheNA signal (relative luminescence units) (Centromere B [55])?
Answer: 2

Question: And the AtheNA signal (relative luminescence units) (Histones [56])?
Answer: 3

Question: And the AtheNA signal (relative luminescence units) (Jo-1 [57])?
Answer: 1

Question: And the AtheNA signal (relative luminescence units) (RNP (ribonucleoprotein) [58])?
Answer: 3

Question: And the AtheNA signal (relative luminescence units) (SSA [59])?
Answer: 2

Question: What about the AtheNA signal (relative luminescence units) (SSB [60]) of the same substance?
Answer: 5

Question: And the AtheNA signal (relative luminescence units) (Scl-70 [61])?
Answer: 2

Question: And the AtheNA signal (relative luminescence units) (Sm (Smith antigen) [62])?
Answer: 2
